Our source for the Kd, koff and kon values is patent publication US20210347865A1 (STATEN BIOTECHNOLOGY B V, published 2021).

Assay [1] addresses T1, native human ApoC3 (human, UniProt P02656 21-99, biotinylated in the captured-antigen assays (Tables 6 and 8); sites not stated).
T1 construct: also called nhuApoC3; native huApoC3
As to the kind of experiment: SPR, IgG captured via anti-human Fc, ApoC3 analyte 50 nM. The procedure: (§1) Immobilization was performed in accordance with the method provided by Biacore in the NHS/EDC kit (Biacore AB). Briefly, after activation of the chip, a solution of 30 μg/ml anti-human Fcγ antibody in 10 mM acetate buffer with pH 5.0 was injected until the surface density reached approximately 10,000 RU. […] Following antibody capture, 100 μl of HBS-EP buffer was injected and passed through the flow cells at 30 μl/min. To bind target, 60 μl of 400 nM, 200 nM, 100 nM, or 50 nM ApoC3 protein in HBS-EP buffer was injected. An off-rate wash was performed by injection of HBS-EP buffer at 30 μl/min for 5 min. After dissociation, the flow cell surfaces were regenerated by injecting 20 μl of 10 mM glycine at pH 1.5.
(§2) The resulting sensorgrams were analysed with BIAevaluation 4.1 software using the Langmuir 1:1 binding model to derive binding kinetics. Data was zero adjusted and the reference cell sensorgrams were subtracted. A no-analyte blank assay was used for double referencing the sensorgrams corresponding to nhuApoC3 and rcyApoC3 injections. The dissociation and association phase sensorgrams were fitted separately for the 4 different concentration curves. Sensorgrams were excluded from the fitting if maximum RU values were below the limit of detection (i.e., <5 RU). SPR signals were too low to calculate kinetic parameters for […].
Background: Surface plasmon resonance follows binding to a sensor surface in real time, without labels.

Assay [2] has as its target T1, native human ApoC3. As to the kind of experiment: SPR, IgG captured via anti-human Fc, ApoC3 analyte 100 nM. The procedure: as §1, §2
In assay [3] the target is T1, native human ApoC3. As to the kind of experiment: SPR, IgG captured via anti-human Fc, ApoC3 analyte 200 nM. How it is done: as §1, §2
Assay [4] addresses T1, native human ApoC3. As to the kind of experiment: SPR, IgG captured via anti-human Fc, ApoC3 analyte 400 nM. The procedure: as §1, §2
The target of assay [5] is T1, native human ApoC3. As to the kind of experiment: SPR, biotinylated antigen captured on streptavidin chip, IgG as analyte, pH 7.4.
The target of assay [6] is T1, native human ApoC3. As to the kind of experiment: SPR, antigen immobilized on CM5 chip, IgG as analyte, pH 7.4; footnote: n/a: not applicable; below the limits of detection kd: 1E-06 1/s.
The target of assay [7] is T2, recombinant cynomolgus ApoC3 (cynomolgus monkey, UniProt P18659 21-99, biotinylated in the captured-antigen assays (Tables 6 and 8); sites not stated).
T2 construct: No cleavage site is stated, so none is applied; also called rcyApoC3; bio-rcyApoC3
T2 sequence (P18659 21-99 limits assumed): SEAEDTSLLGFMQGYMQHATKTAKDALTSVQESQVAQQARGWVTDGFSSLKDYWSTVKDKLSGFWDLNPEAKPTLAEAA
In words: SPR, IgG captured via anti-human Fc, ApoC3 analyte 50 nM. How it is done:
as §1, §2

Assay [8] has as its target T2, recombinant cynomolgus ApoC3. As to the kind of experiment: SPR, IgG captured via anti-human Fc, ApoC3 analyte 100 nM. How it is done:
as §1, §2

Assay [9] shares this target. As to the kind of experiment: SPR, IgG captured via anti-human Fc, ApoC3 analyte 200 nM. The procedure:
as §1, §2

Assay [10] has the same target. In words: SPR, IgG captured via anti-human Fc, ApoC3 analyte 400 nM. How it is done: as §1, §2
Assay [11] has the same target. In words: SPR, antigen immobilized on CM5 chip, IgG as analyte, pH 7.4.
Assay [12] shares this target. In words: SPR, biotinylated antigen captured on streptavidin chip, IgG as analyte, pH 7.4.
The target in assay [13] is T1, native human ApoC3. In words: SPR, biotinylated antigen captured on streptavidin chip, IgG as analyte, pH 7.4; footnote: n/a: not applicable; below the limits of detection kd: 1E-06 1/s.
Assay [14] has as its target T1, native human ApoC3. As to the kind of experiment: SPR, antigen immobilized on CM5 chip, IgG as analyte, pH 7.4.
Assay [15] has as its target T2, recombinant cynomolgus ApoC3. In words: SPR, antigen immobilized on CM5 chip, IgG as analyte, pH 7.4; antigen immobilized on chip, IgG as analyte (12.5-0.8 nM).
For assay [16] the target is unchanged. As to the kind of experiment: SPR, biotinylated antigen captured on streptavidin chip, IgG as analyte, pH 7.4; biotinylated antigen captured on streptavidin chip, IgG as analyte.
Assay [17] shares this target. As to the kind of experiment: SPR, antigen immobilized on CM5 chip, IgG as analyte, pH 7.4; antigen immobilized on chip, IgG as analyte (50-0.8 nM).

Numbering of substitutions follows the chain as printed.

T1 sequence (P02656 21-99): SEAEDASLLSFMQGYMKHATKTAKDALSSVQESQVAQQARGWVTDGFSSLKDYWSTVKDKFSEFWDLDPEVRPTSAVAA

B1: 5E5 WT IgG (antibody, V domains shown)
VH: QLQLVESGGGLVQPGGSLRLSCAASGFTFGTYSMRWVRQVPRKALEWVSSISTDGGGTAYRDSVKGRFTISRDNAKNTLYLQMNNLKPEDTAIYYCVIAGYSDWGQGTQVTVSS
VL: ATMLTQSPGSLSVVPGESASISCKTSQGLVHSDGKTYFYWFLQKPGQSPQQLIYQVSNRASGVPDRFTGSGSGTDFTLKISGVKAEDAGVYYCAQGTYYPHTFGSGTRLEIK
notes: Full-length IgG captured by an anti-human Fc antibody
For B1, the Kd stood at 0.695 nM in the assay with native human ApoC3 [1]; 0.734 nM with native human ApoC3 [2]; 0.77 nM with native human ApoC3 [3]; 0.741 nM with native human ApoC3 [4]; 0.05 nM in the assay with native human ApoC3 [5]. Also, the off-rate constant (koff) is 0.000114 s⁻¹ with native human ApoC3 [1]; 0.000121 s⁻¹ in the assay with native human ApoC3 [2]; 0.000128 s⁻¹ with native human ApoC3 [3]; 0.000122 s⁻¹ with native human ApoC3 [4]; 1.8e-05 s⁻¹ in the assay with native human ApoC3 [5]; < 1e-06 s⁻¹ in the assay with native human ApoC3 [6]. Also, the kon with native human ApoC3 [1] is 164000 M⁻¹ s⁻¹; with native human ApoC3 [2] it was 165000 M⁻¹ s⁻¹; with native human ApoC3 [3], 166000 M⁻¹ s⁻¹; with native human ApoC3 [4], 165000 M⁻¹ s⁻¹; with native human ApoC3 [5] it was 350000 M⁻¹ s⁻¹.

B2: 29B03 IgG (antibody, V domains shown)
VH: B1 VH
VL: DVVLTQTPGSLSVVPGESASISCKAGQNLVHPDGKTYLYWLLQKPGQSPQRLIYQVSNRDSGVPDRFTGSGSGTDFTLKISGVKVEDAGVYYCAQGTYWPKTFGQGTKLEIK
As to B2, the dissociation constant (Kd) is 190 nM in assay [7]; 0.336 nM with native human ApoC3 [2]; 385 nM in assay [8]; 0.35 nM with native human ApoC3 [3]; 297 nM in assay [9]; 0.401 nM with native human ApoC3 [4]. Also, the results for the Kd in assay [10], in [11] and in [12] were 367 nM, 0.18 nM and 0.33 nM, respectively. Besides, the off-rate constant (koff) came to 0.0127 s⁻¹ in [7]; 8e-05 s⁻¹ with native human ApoC3 [2]; 0.014 s⁻¹ in [8]; 8.44e-05 s⁻¹ with native human ApoC3 [3]; 0.0137 s⁻¹ in [9]; 8.63e-05 s⁻¹ with native human ApoC3 [4]. Moreover, the koff was 0.0145 s⁻¹ in assay [10]; 6.7e-05 s⁻¹ in assay [11]; 0.000104 s⁻¹ in assay [12]; < 1e-06 s⁻¹ with native human ApoC3 [6]; < 1e-06 s⁻¹ with native human ApoC3 [13]. For the same molecule, the kon was determined as 66800 M⁻¹ s⁻¹ in assay [7]; 238000 M⁻¹ s⁻¹ with native human ApoC3 [2]; 36300 M⁻¹ s⁻¹ in [8]; 241000 M⁻¹ s⁻¹ with native human ApoC3 [3]; 46100 M⁻¹ s⁻¹ in assay [9]; 215000 M⁻¹ s⁻¹ with native human ApoC3 [4]. For the same molecule, the figures for the on-rate (kon) in assay [10], in assay [11] and in [12] were 39600 M⁻¹ s⁻¹, 380000 M⁻¹ s⁻¹ and 320000 M⁻¹ s⁻¹, respectively.

B3: 29G02 IgG (antibody, V domains shown)
VH: B1 VH
VL: DVVLTQTPGSLSVVPGESASISCKATQSLVHIDGKTYLYWLLQKPGQSPQRLIYQVSTRDSGVPDRFTGAGSGAEFTLKISGVKAEDAGVYYCAQDTYSTKTFGQGTKLEIK
As to B3, the dissociation constant Kd in the assay with native human ApoC3 [1] amounted to 2.31 nM; in the assay with native human ApoC3 [2], 2.52 nM; with native human ApoC3 [3], 2.57 nM; with native human ApoC3 [4] it was 3.04 nM; with native human ApoC3 [14] it was 0.01 nM; in the assay with native human ApoC3 [5] it was 0.02 nM. Further, the dissociation constant Kd in assay [12] turned out to be 0.37 nM; in [15] it was 0.5 nM. Besides, the koff in the assay with native human ApoC3 [1] was 0.000718 s⁻¹; in the assay with native human ApoC3 [2], 0.000758 s⁻¹; with native human ApoC3 [3], 0.000733 s⁻¹; in the assay with native human ApoC3 [4], 0.000752 s⁻¹; with native human ApoC3 [14] it was 1.6e-05 s⁻¹; in the assay with native human ApoC3 [5], 3.3e-05 s⁻¹. The figures for the off-rate constant (koff) in [15] and in assay [16] were 0.000552 s⁻¹ and 0.000275 s⁻¹, respectively. Further, the kon in the assay with native human ApoC3 [1] turned out to be 311000 M⁻¹ s⁻¹; with native human ApoC3 [2], 301000 M⁻¹ s⁻¹; with native human ApoC3 [3], 286000 M⁻¹ s⁻¹; with native human ApoC3 [4], 247000 M⁻¹ s⁻¹; with native human ApoC3 [14] it was 1.32e+06 M⁻¹ s⁻¹; with native human ApoC3 [5] it was 1.31e+06 M⁻¹ s⁻¹. In addition, the kon in [15] is 1.11e+06 M⁻¹ s⁻¹; in assay [16], 750000 M⁻¹ s⁻¹.

B4: 29F10 IgG (antibody, V domains shown)
VH: B1 VH
VL: B2 VL with S18P, I21V, G26S, N28S, D60G, K79E, V85A
For the molecule B4, the Kd came out at 1.71 nM with native human ApoC3 [1]; 1.63 nM in the assay with native human ApoC3 [2]; 1.63 nM with native human ApoC3 [3]; 1.8 nM with native human ApoC3 [4]; 0.04 nM in the assay with native human ApoC3 [14]; 1.75 nM in [12]. Also, the dissociation constant Kd in assay [17] turned out to be 2.79 nM. Besides, the off-rate constant (koff) with native human ApoC3 [1] is 0.000246 s⁻¹; with native human ApoC3 [2], 0.000219 s⁻¹; with native human ApoC3 [3], 0.000217 s⁻¹; with native human ApoC3 [4], 0.000219 s⁻¹; with native human ApoC3 [14] it was 2.4e-05 s⁻¹; in assay [17], 0.000774 s⁻¹. Moreover, the off-rate (koff) was 0.000388 s⁻¹ in assay [16] and < 1e-06 s⁻¹ with native human ApoC3 [13]. In addition, the kon is 144000 M⁻¹ s⁻¹ with native human ApoC3 [1]; 134000 M⁻¹ s⁻¹ with native human ApoC3 [2]; 133000 M⁻¹ s⁻¹ in the assay with native human ApoC3 [3]; 122000 M⁻¹ s⁻¹ in the assay with native human ApoC3 [4]; 620000 M⁻¹ s⁻¹ in the assay with native human ApoC3 [14]; 280000 M⁻¹ s⁻¹ in assay [17]. For the same molecule, the on-rate (kon) in assay [16] was 220000 M⁻¹ s⁻¹.

B5: 29G11 IgG (antibody, V domains shown)
VH: B1 VH
VL: B3 VL with E17G, T26S, H31Y, I32S, L42R, T58N, D60P, A70S, A74T, E75D
With B5, the equilibrium dissociation constant (Kd) with native human ApoC3 [1] is 4.79 nM; in the assay with native human ApoC3 [2], 4.85 nM; with native human ApoC3 [3], 5.21 nM; with native human ApoC3 [4], 5.76 nM; in the assay with native human ApoC3 [14] it was 0.04 nM; in the assay with native human ApoC3 [5], 0.05 nM. For the same molecule, the Kd was 0.25 nM in [12] and 0.38 nM in assay [15]. The koff in the assay with native human ApoC3 [1] turned out to be 0.00115 s⁻¹; in the assay with native human ApoC3 [2], 0.00117 s⁻¹; with native human ApoC3 [3], 0.00122 s⁻¹; with native human ApoC3 [4], 0.00119 s⁻¹; with native human ApoC3 [14], 6.3e-05 s⁻¹; with native human ApoC3 [5] it was 7.3e-05 s⁻¹. Besides, the koff was found to be 0.000531 s⁻¹ in [15] and 0.000228 s⁻¹ in assay [16]. Further, the kon with native human ApoC3 [1] came out at 240000 M⁻¹ s⁻¹; in the assay with native human ApoC3 [2], 241000 M⁻¹ s⁻¹; in the assay with native human ApoC3 [3], 234000 M⁻¹ s⁻¹; in the assay with native human ApoC3 [4], 207000 M⁻¹ s⁻¹; with native human ApoC3 [14], 1.44e+06 M⁻¹ s⁻¹; with native human ApoC3 [5], 1.38e+06 M⁻¹ s⁻¹. For the same molecule, the kon came to 1.4e+06 M⁻¹ s⁻¹ in assay [15] and 920000 M⁻¹ s⁻¹ in assay [16].

The Kd is a measure of binding affinity in units of concentration. The koff is a measure of how fast the partners let go of each other. What is called kon is a measure of how fast the partners come together.
